Results reported in publication PMC9300119, “Proteins DotY and DotZ modulate the dynamics and localization of the type IVB coupling complex of Legionella pneumophila” (Molecular Microbiology, 2021).

B1: DotM (natural protein)
chain: MYIEMAQQQQQSGSDNSMAPVWIVILLFITAYFVWALAHQYIVSFVFTINIWQARLVNLFLNNQLLANQIYLMQTLDPNTVNWDQMVTVMRAVGDYMRYPVICILVVLAFVLYNSNVTLKYRKTYDMKSLRAQEQFNWPAIMPIVKEDLVSQDVNKGPWAMALTPMEFARKYNLLRKDDALLDNPVPGEEMTAGIRRGDAKRVFTMQLGPYWDGFERCSPQAYALSAVFMARMNRDRDAANNILKVLDKTFVDGKPDFSVARPVMKKYQNSELVQEVVAKHAYVLTVIASLLEAAREDGVVPSSEFLWLKPVDRRLWYMLNCVGRQTPYSEVAGPFAHWKAEKEMGRRSLVPMIDEAIRALEIAVKEVRLTPRQMEELEP
B4: DotZ (natural protein)
chain: MDEIKKDDELSQWLSTYGTITAERILGRYNISLPQDEILEAINIPSSFYRHLLQIPLKNVLNGIVIQQASDYHVYAQKLLIDYLLSGESSKEPDSQGAGTRESLEDERQRLVQLGDEFHKLELEQDNLIASSQASLMKISIDWNTKLETTLSKLNSLYKNTNSKIKKNAIRKALIKAFIHCDLVKDQSQKNKYQLIDKLNQTLAVSVGAELKESILTNLSELFQILEALNTKLDEFTDRTNHLSQQAKSFRTQFYEVILRIIELIKLLPEYKIDPAQDAINREPLYFDRTIGER
notes: also called lpg1549

Key:
[1] = molecular target: T1, DotL with a Strep-tag at the C-terminus (Legionella pneumophila (strain Lp01), UniProt Q5ZYC6 1-783); test: affinity purification with mass spectrometry; details: partners not purified
T1 construct: also called DotL_(Strep); DotL_(strep)
T1 sequence: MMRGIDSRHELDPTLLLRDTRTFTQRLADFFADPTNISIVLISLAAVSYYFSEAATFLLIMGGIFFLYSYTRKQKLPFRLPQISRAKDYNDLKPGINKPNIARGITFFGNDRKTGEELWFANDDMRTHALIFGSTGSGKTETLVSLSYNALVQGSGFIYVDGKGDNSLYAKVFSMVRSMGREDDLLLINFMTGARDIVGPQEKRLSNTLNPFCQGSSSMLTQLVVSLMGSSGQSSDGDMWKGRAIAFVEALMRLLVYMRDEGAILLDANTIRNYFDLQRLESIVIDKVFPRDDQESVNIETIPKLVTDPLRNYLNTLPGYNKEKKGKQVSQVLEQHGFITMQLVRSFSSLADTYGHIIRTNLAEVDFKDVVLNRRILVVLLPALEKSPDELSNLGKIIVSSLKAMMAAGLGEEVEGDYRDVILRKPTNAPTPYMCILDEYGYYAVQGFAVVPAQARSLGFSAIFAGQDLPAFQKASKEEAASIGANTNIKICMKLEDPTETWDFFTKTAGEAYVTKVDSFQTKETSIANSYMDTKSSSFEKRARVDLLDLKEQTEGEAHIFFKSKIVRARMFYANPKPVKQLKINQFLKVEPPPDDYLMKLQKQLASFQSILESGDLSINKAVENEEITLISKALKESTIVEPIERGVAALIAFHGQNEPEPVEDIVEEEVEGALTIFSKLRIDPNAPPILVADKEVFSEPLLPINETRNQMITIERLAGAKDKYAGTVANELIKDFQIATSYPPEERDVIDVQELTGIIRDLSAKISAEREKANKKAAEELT

[2] = molecular target: B4; test: cryo-EM structure; details: both partners purified
[3] = molecular target: T1, DotL with a Strep-tag at the C-terminus; test: cryo-EM structure; details: both partners purified
[4] = molecular target: B1; test: cryo-EM structure; details: both partners purified

B1: binds [1].

B2: DotN (natural protein)
chain: MNVNQTMADNQQRCELKLIASPGSWRLYSARKIDERFKSYEQKIFQRDRYTCQFCGFQARLYQDIVNLDGDYTNNRLSNLVTACCFCAQCFFVESVGVGGYGGGTLIYLPELTQAELNSLCHVLFCAITNDTGYKSSAQNIYRSFKFRSQIVEEKFGEGTSDPAIFGQLMIDSGVNSEEIREKLFKNIRLLPSRAKFRKQIEKWAASALEEIAD
B2: binds [2]; binds [3].

B3: DotY (natural protein)
chain: MPKYTLPTRDALLKAMQVGETSIEAAEYMATRFEQILTKAKLLPECNDMLEKIKEYAQFVKFKLLSSAQVWSGQERPTSDYQNTQENKAEFLASHLEGLPSGLKLEVAIGDDAKILRGFSSNGKMVEGDQLKTMDGLLEGWLAKNSLAISGGAVVKIDNTGNQTKVDPQEIRQLINDSEKGVAKYFADKGVGMEVAQRTYQEPKALETKREEIRQEIESGAEAPTTQSIR
notes: also called lpg0294
B3: binds [2].

B4: binds [4].
